Article PMC12903857 (2026)
No end group written: not given here.

Key:
14-3-3σ [1] = biological target: T1, 14-3-3σ (UniProt P31947 1-248); test: FP; DMSO (reference for compounds 24, 30, 31)
T1 chain: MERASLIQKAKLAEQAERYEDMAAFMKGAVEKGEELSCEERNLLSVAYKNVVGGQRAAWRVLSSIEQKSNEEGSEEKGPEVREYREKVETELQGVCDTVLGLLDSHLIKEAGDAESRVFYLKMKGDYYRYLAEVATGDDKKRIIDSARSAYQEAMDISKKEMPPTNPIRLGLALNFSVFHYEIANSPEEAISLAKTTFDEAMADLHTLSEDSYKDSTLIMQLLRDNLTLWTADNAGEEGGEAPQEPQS

14-3-3σ [2] = biological target: T1, 14-3-3σ; test: FP; 100 uM compound 46
14-3-3σ [3] = biological target: T1, 14-3-3σ; test: FP; 100 uM compound 36
14-3-3σ [4] = biological target: T1, 14-3-3σ; test: FP; 100 uM compound 18
14-3-3σ [5] = biological target: T1, 14-3-3σ; test: FP; 100 uM compound 21
14-3-3σ [6] = biological target: T1, 14-3-3σ; test: FP; 100 uM compound 80
14-3-3σ [7] = biological target: T1, 14-3-3σ; test: FP; 100 uM compound 12
14-3-3σ [8] = biological target: T1, 14-3-3σ; test: FP; DMSO (reference for compounds 19, 33)
14-3-3σ [9] = biological target: T1, 14-3-3σ; test: FP; 100 uM compound 19
14-3-3σ [10] = biological target: T1, 14-3-3σ; test: FP; DMSO (reference for compound 80)
14-3-3σ [11] = biological target: T1, 14-3-3σ; test: FP; 100 uM compound 40
14-3-3σ [12] = biological target: T1, 14-3-3σ; test: FP; 100 uM compound 39
14-3-3σ [13] = biological target: T1, 14-3-3σ; test: FP; 100 uM compound 32
14-3-3σ [14] = biological target: T1, 14-3-3σ; test: FP; 100 uM compound 8
14-3-3σ [15] = biological target: T1, 14-3-3σ; test: FP; DMSO (reference for compound 11)
14-3-3σ [16] = biological target: T1, 14-3-3σ; test: FP; 100 uM compound 38
14-3-3σ [17] = biological target: T1, 14-3-3σ; test: FP; DMSO (reference for compound 70)
14-3-3σ [18] = biological target: T1, 14-3-3σ; test: FP; 100 uM compound 33
14-3-3σ [19] = biological target: T1, 14-3-3σ; test: FP; 100 uM compound 83
14-3-3σ [20] = biological target: T1, 14-3-3σ; test: FP; DMSO (reference for compounds 12, 18, 21, 36, 39, 40)
14-3-3σ [21] = biological target: T1, 14-3-3σ; test: FP; 100 uM compound 30
14-3-3σ [22] = biological target: T1, 14-3-3σ; test: FP; 100 uM compound 31
14-3-3σ [23] = biological target: T1, 14-3-3σ; test: FP; 100 uM compound 11
14-3-3σ [24] = biological target: T1, 14-3-3σ; test: FP; DMSO (reference for compound 8)
14-3-3σ [25] = biological target: T1, 14-3-3σ; test: FP; 100 uM compound 24

B1: FAM-labeled C-RAF259 peptide (10-mer) (peptide)
chain: QRSTSTPNVH
modifications: also: phosphoserine at S259, site in chain not given here, FAM label, site not given here
14-3-3σ [1]
  Kd: 2.28 µM
14-3-3σ [2]
  Kd: 0.17 µM
14-3-3σ [3]
  Kd: 0.24 µM
14-3-3σ [4]
  Kd: 0.28 µM
14-3-3σ [5]
  Kd: 0.48 µM
14-3-3σ [6]
  Kd: 0.42 µM
14-3-3σ [7]
  Kd: 0.19 µM
14-3-3σ [8]
  Kd: 3.05 µM
14-3-3σ [9]
  Kd: 0.213 µM
14-3-3σ [10]
  Kd: 4.6 µM
14-3-3σ [11]
  Kd: 0.32 µM
14-3-3σ [12]
  Kd: 0.42 µM
14-3-3σ [13]
  Kd: 0.14 µM
14-3-3σ [14]
  Kd: 6.6 µM
14-3-3σ [15]
  Kd: 1.32 µM
14-3-3σ [16]
  Kd: 0.218 µM
14-3-3σ [17]
  Kd: 5.51 µM
14-3-3σ [18]
  Kd: 0.23 µM
14-3-3σ [19]
  Kd: 0.102 µM
14-3-3σ [20]
  Kd: 4.2 µM
14-3-3σ [21]
  Kd: 0.78 µM
14-3-3σ [22]
  Kd: 1.42 µM
14-3-3σ [23]
  Kd: 0.4 µM
14-3-3σ [24]
  Kd: 6.7 µM
14-3-3σ [25]
  Kd: 0.11 µM
